± gives the standard deviation of the averaged measurements.
B1: library; a variant is named by its letters at N, in order (parent)
chain: GCUGUCACCGGUGUAUUACCCUAGUGGUCGACCGGUCUGAUGAGUCUNNNNNNAGACGAAACAGC

Legend:
[1] = variants of: B1; experiment: normalized RNA/DNA level with ligand (relative to sTRSVctl = 100) (log10 (% of sTRSVctl)); ligand: hypoxanthine (xanthine aptamer); higher = less ribozyme self-cleavage, higher mRNA level; conditions: ligand concentration (+) RNA-Seq: 5 mM, HEK293T, reporter: mCherry (pCS4076), ligand present: yes
In short: (§1)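 Total RNA, extracted with EDTA 72 h after HEK293T cells were transfected with 4 µg per 6-well well of reporter-linked ribozyme switch library plasmids, was reverse-transcribed, amplified, barcoded and sequenced. Ligand, if used, was added 1 h before transfection. RNA level was derived from RNA reads divided by DNA reads and normalized to a spiked-in non-cleaving sequence or to the top sequences. This was multiplied by 100 and log10-transformed, with the top set of 25 sequences and a ≥100 DNA read minimum.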

[2] = variants of: B1; experiment: normalized RNA/DNA level without ligand (relative to sTRSVctl = 100) (log10 (% of sTRSVctl)); ligand: hypoxanthine (xanthine aptamer); higher = less ribozyme self-cleavage, higher mRNA level; conditions: HEK293T, reporter: mCherry (pCS4076), ligand present: no
In short: as §1

Variant	normalized RNA/DNA level with ligand (log10) [1]	normalized RNA/DNA level without ligand (log10) [2]
GCUGUCACCGGUGUAUUACCCUAGUGGUCGACCGGUCUGAUGAGUCUAAUUCCAGACGAAACAGC [AAUUCC]	1.98 ± 0.039	1.9 ± 0.027
GCUGUCACCGGUGUAUUACCCUAGUGGUCGACCGGUCUGAUGAGUCUUAUUCCAGACGAAACAGC [UAUUCC]	1.95 ± 0.023	1.852 ± 0.012
GCUGUCACCGGUGUAUUACCCUAGUGGUCGACCGGUCUGAUGAGUCUCAUUCGAGACGAAACAGC [CAUUCG]	1.943 ± 0.012	1.89 ± 0.07
GCUGUCACCGGUGUAUUACCCUAGUGGUCGACCGGUCUGAUGAGUCUUAUUCGAGACGAAACAGC [UAUUCG]	1.929 ± 0.0088	1.74 ± 0.072
GCUGUCACCGGUGUAUUACCCUAGUGGUCGACCGGUCUGAUGAGUCUCAUUCUAGACGAAACAGC [CAUUCU]	1.91 ± 0.021	1.86 ± 0.034
GCUGUCACCGGUGUAUUACCCUAGUGGUCGACCGGUCUGAUGAGUCUGAUUCUAGACGAAACAGC [GAUUCU]	1.97 ± 0.065	1.92 ± 0.042
GCUGUCACCGGUGUAUUACCCUAGUGGUCGACCGGUCUGAUGAGUCUAAUUCUAGACGAAACAGC [AAUUCU]	1.9751 ± 0.00092	1.855 ± 0.0071
GCUGUCACCGGUGUAUUACCCUAGUGGUCGACCGGUCUGAUGAGUCUUAUUCUAGACGAAACAGC [UAUUCU]	1.96 ± 0.079	1.88 ± 0.035
GCUGUCACCGGUGUAUUACCCUAGUGGUCGACCGGUCUGAUGAGUCUUAUUGAAGACGAAACAGC [UAUUGA]	1.901 ± 0.016	1.74 ± 0.021
GCUGUCACCGGUGUAUUACCCUAGUGGUCGACCGGUCUGAUGAGUCUCAUUGCAGACGAAACAGC [CAUUGC]	1.94 ± 0.06	1.87 ± 0.053
GCUGUCACCGGUGUAUUACCCUAGUGGUCGACCGGUCUGAUGAGUCUAAUUGCAGACGAAACAGC [AAUUGC]	1.905 ± 0.013	1.82 ± 0.046
GCUGUCACCGGUGUAUUACCCUAGUGGUCGACCGGUCUGAUGAGUCUUAUUGCAGACGAAACAGC [UAUUGC]	1.94 ± 0.038	1.841 ± 0.0096
GCUGUCACCGGUGUAUUACCCUAGUGGUCGACCGGUCUGAUGAGUCUCAUUGGAGACGAAACAGC [CAUUGG]	1.91 ± 0.04	1.47 ± 0.068
GCUGUCACCGGUGUAUUACCCUAGUGGUCGACCGGUCUGAUGAGUCUCAUUGUAGACGAAACAGC [CAUUGU]	1.94 ± 0.049	1.877 ± 0.0085
GCUGUCACCGGUGUAUUACCCUAGUGGUCGACCGGUCUGAUGAGUCUAAUUGUAGACGAAACAGC [AAUUGU]	1.93 ± 0.004	1.705 ± 0.013
GCUGUCACCGGUGUAUUACCCUAGUGGUCGACCGGUCUGAUGAGUCUAAUUUAAGACGAAACAGC [AAUUUA]	1.93 ± 0.047	1.828 ± 0.0075
GCUGUCACCGGUGUAUUACCCUAGUGGUCGACCGGUCUGAUGAGUCUUAUUUAAGACGAAACAGC [UAUUUA]	1.93 ± 0.07	1.93 ± 0.053
GCUGUCACCGGUGUAUUACCCUAGUGGUCGACCGGUCUGAUGAGUCUGAUUUCAGACGAAACAGC [GAUUUC]	1.972 ± 0.018	1.907 ± 0.012
GCUGUCACCGGUGUAUUACCCUAGUGGUCGACCGGUCUGAUGAGUCUAAUUUCAGACGAAACAGC [AAUUUC]	1.91 ± 0.0075	1.926 ± 0.0082
GCUGUCACCGGUGUAUUACCCUAGUGGUCGACCGGUCUGAUGAGUCUUAUUUCAGACGAAACAGC [UAUUUC]	1.974 ± 0.01	1.911 ± 0.019
GCUGUCACCGGUGUAUUACCCUAGUGGUCGACCGGUCUGAUGAGUCUCAUUUGAGACGAAACAGC [CAUUUG]	1.98 ± 0.1	1.9 ± 0.049
